Source: the Immune Epitope Database (IEDB)

How the values were obtained:
[1] = molecular target: HLA-B*15:01; assay: IEDB peptide-MHC binding, purified MHC/direct/fluorescence; filed as Kd, often an IC50 or EC50 that approximates it; ≥ and ≤ were set here for values at or beyond the usual limits of such assays
[2] = molecular target: HLA-A*01:01; assay: as above
[3] = molecular target: HLA-A*02:01; assay: IEDB peptide-MHC binding, purified MHC/competitive/fluorescence; filed as Kd, often an IC50 or EC50 that approximates it; ≥ and ≤ were set here for values at or beyond the usual limits of such assays
[4] = molecular target: HLA-B*07:02; assay: IEDB peptide-MHC binding, purified MHC/direct/fluorescence; filed as Kd, often an IC50 or EC50 that approximates it; ≥ and ≤ were set here for values at or beyond the usual limits of such assays
[5] = molecular target: HLA-A*26:01; assay: IEDB peptide-MHC binding, purified MHC/competitive/radioactivity; filed as Kd, often an IC50 or EC50 that approximates it; ≥ and ≤ were set here for values at or beyond the usual limits of such assays
[6] = molecular target: HLA-A*01:01; assay: as above; conditions: source organism: Dengue virus 2 Jamaica/1409/1983
[7] = molecular target: HLA-B*44:03; assay: as above
[8] = molecular target: HLA-B*44:02; assay: as above
[9] = molecular target: HLA-A*24:02; assay: as above
[10] = molecular target: HLA-A*69:01; assay: IEDB peptide-MHC binding, purified MHC/direct/fluorescence; filed as Kd, often an IC50 or EC50 that approximates it; ≥ and ≤ were set here for values at or beyond the usual limits of such assays
[11] = molecular target: HLA-A*02:01; assay: as above
[12] = molecular target: HLA-A*02:01; assay: IEDB peptide-MHC binding, purified MHC/competitive/fluorescence; ≥ and ≤ were set here for values at or beyond the usual limits of such assays
[13] = molecular target: HLA-B*27:05; assay: IEDB peptide-MHC binding, purified MHC/direct/fluorescence; filed as Kd, often an IC50 or EC50 that approximates it; ≥ and ≤ were set here for values at or beyond the usual limits of such assays; conditions: source organism: Mycobacterium tuberculosis
[14] = molecular target: HLA-A*30:01; assay: IEDB peptide-MHC binding, purified MHC/competitive/radioactivity; filed as Kd, often an IC50 or EC50 that approximates it; ≥ and ≤ were set here for values at or beyond the usual limits of such assays
[15] = molecular target: HLA-B*40:01; assay: IEDB peptide-MHC binding, purified MHC/direct/fluorescence; filed as Kd, often an IC50 or EC50 that approximates it; ≥ and ≤ were set here for values at or beyond the usual limits of such assays; conditions: source organism: Rickettsia prowazekii
[16] = molecular target: HLA-B*58:01; assay: as above; conditions: source organism: Rickettsia prowazekii
[17] = molecular target: HLA-A*31:01; assay: as above; conditions: source organism: SARS-CoV1
[18] = molecular target: HLA-A*03:01; assay: as above; conditions: source organism: SARS-CoV1
[19] = molecular target: HLA-A*68:01; assay: IEDB peptide-MHC binding, purified MHC/competitive/radioactivity; filed as Kd, often an IC50 or EC50 that approximates it; ≥ and ≤ were set here for values at or beyond the usual limits of such assays; conditions: source organism: SARS coronavirus Tor2
[20] = molecular target: HLA-A*33:01; assay: as above; conditions: source organism: SARS coronavirus Tor2
[21] = source organism: Dengue virus 4 Philippines/H241/1956
[22] = source organism: Dengue virus 2 Jamaica/1409/1983
[23] = source organism: Dengue virus 3 Sri Lanka/1266/2000
[24] = source organism: Dengue virus 1 Brazil/97-11/1997
[25] = source organism: Bacillus thuringiensis
[26] = source organism: Mycobacterium tuberculosis
[27] = source organism: Zaire ebolavirus
[28] = source organism: Oligoflexia bacterium
[29] = source organism: Cryptosporidium hominis
[30] = source organism: Orthohantavirus hantanense
[31] = source organism: Giardia lamblia ATCC 50803
[32] = source organism: Vaccinia virus WR
[33] = source organism: Sudan ebolavirus
[34] = source organism: Cryptosporidium parvum

Q: For ALTAGAGAY, which Kd ([1]; source organism: Mycobacterium tuberculosis str. Haarlem) is on record?
A: The Kd was 450 nM.

Q: ASLIPDATY was tested. Which Kd ([2]; source organism: Mammarenavirus lassaense) did it give?
A: Its Kd is 17100 nM.

Q: For DIRTLLPILL, which Kd ([3]; source organism: Variola virus) is on record?
A: Its Kd is 737 nM.

Q: For DPNPQEVVL, which Kd ([4]; source organism: Human immunodeficiency virus 1) is on record?
A: Its Kd is ≥ 30700 nM.

Q: DVRNDMISY was tested. Which Kd [5, 21] did it give?
A: Its Kd is 431 nM.

Q: What does the source list for EAEPPFGDSY?
A: Kd [6]: 1770 nM; Kd [5, 22]: 1300 nM

Q: Which results are given for EEEEAGVLW?
A: Kd [7, 22]: 162 nM; Kd [8, 22]: 84.7 nM

Q: For EEFWKLVDR, which Kd [7, 23] is on record?
A: The Kd was 3110 nM.

Q: For EEYVDYMPVM, which Kd [7, 21] is on record?
A: The Kd was 869 nM.

Q: EFFLMVLLI was tested. Which Kd [9, 24] did it give?
A: The Kd was ≥ 40100 nM.

Q: With EIVNLLDNKV as the sequence, how does the Kd ([3]; source organism: Vaccinia virus Copenhagen) read?
A: Its Kd is ≥ 20000 nM.

Q: Which Kd [10, 25] does the source give for ELGGGFGTL here?
A: Its Kd is 680 nM.

Q: And the Kd [11, 25]?
A: The Kd was 7000 nM.

Q: With ELIDGISLG as the sequence, how does the Kd ([5]; source organism: Dengue virus 4 Dominica/814669/1981) read?
A: The Kd was 472 nM.

Q: For ELITEQMAPH, which Kd [5, 21] is on record?
A: Its Kd is 6060 nM.

Q: With EMFGGTPAV as the sequence, how does the Kd [11, 26] read?
A: Its Kd is 2.1 nM.

Q: With ENSSAMVQV as the sequence, how does the IC50 [12, 27] read?
A: The IC50 was ≥ 277000 nM.

Q: For ETEQPTLDY, which Kd ([10]; source organism: Homo sapiens) is on record?
A: The Kd was 2890 nM.

Q: What about the Kd ([2]; source organism: Homo sapiens) of the same sequence?
A: The Kd was 16.3 nM.

Q: With ETLETLLLLT as the sequence, how does the Kd [5, 22] read?
A: Its Kd is 17400 nM.

Q: ETLGEKWKNR was tested. Which Kd ([5]; source organism: Dengue virus 2 Peru/IQT2913/1996) did it give?
A: Its Kd is 14600 nM.

Q: With ETLGEKWKSR as the sequence, how does the Kd [5, 22] read?
A: The Kd was 14300 nM.

Q: Which Kd [10, 28] does the source give for EYSGGLHGV here?
A: The Kd was 460 nM.

Q: And the Kd [11, 28]?
A: Its Kd is 18000 nM.

Q: How did the Kd [10, 29] turn out when FQWSDDPFI was run?
A: The Kd was ≥ 20000 nM.

Q: What about the Kd [11, 29] of the same sequence?
A: The Kd was 7.3 nM.

Q: Which Kd [13] does the source give for FRWDYIPPT here?
A: Its Kd is 332 nM.

Q: Which Kd ([4]; source organism: Hepacivirus hominis) does the source give for GAAGARGAL here?
A: Its Kd is 12.8 nM.

Q: GELCEDTMTY was tested. Which Kd [7, 24] did it give?
A: Its Kd is 25 nM.

Q: For GGSLVRCPLS, which Kd [14, 21] is on record?
A: The Kd was 2430 nM.

Q: With GIFPYSIPAT as the sequence, how does the Kd [14, 23] read?
A: The Kd was ≥ 70400 nM.

Q: Which results are given for GLQADAPHL?
A: Kd [10, 30]: ≥ 20000 nM; Kd [11, 30]: 104 nM

Q: How did the Kd ([1]; source organism: Mycobacterium tuberculosis variant bovis BCG str. Pasteur 1173P2) turn out when GLVRALTAF was run?
A: Its Kd is 255 nM.

Q: What does the source list for GMSLLEYGV?
A: Kd [10, 31]: ≥ 20000 nM; Kd [11, 31]: 3.5 nM

Q: Which results are given for GQFGSGWTW?
A: Kd [15]: 2870 nM; Kd ([1]; source organism: Rickettsia prowazekii): 138 nM; Kd [16]: 168 nM

Q: For GTIGAVSLDF, which Kd [5, 22] is on record?
A: The Kd was 454 nM.

Q: Which IC50 [12, 27] does the source give for GVATDVPSA here?
A: Its IC50 is 1460 nM.

Q: For HVKAFYKFI, which Kd [14, 32] is on record?
A: The Kd was 0.346 nM.

Q: Which Kd [7, 22] does the source give for IESALNDTW here?
A: Its Kd is 67.9 nM.

Q: What about the Kd [8, 22] of the same sequence?
A: The Kd was 127 nM.

Q: For IESSKNQTW, which Kd [7, 21] is on record?
A: The Kd was 158 nM.

Q: What about the Kd [8, 21] of the same sequence?
A: The Kd was 135 nM.

Q: IKKPDGSEC was tested. Which IC50 [12, 33] did it give?
A: Its IC50 is ≥ 318000 nM.

Q: Which Kd ([14]; source organism: Mammarenavirus brazilense) does the source give for KCLNIMLGK here?
A: Its Kd is 24.9 nM.

Q: KLIIHNPEL was tested. Which Kd ([3]; source organism: Vaccinia virus) did it give?
A: The Kd was 2 nM.

Q: Which Kd [10, 34] does the source give for KLIQIEKVL here?
A: The Kd was ≥ 20000 nM.

Q: And the Kd [11, 34]?
A: The Kd was 3250 nM.

Q: For KLSSLGLNAV, which IC50 ([12]; source organism: Hepatitis C virus subtype 1b) is on record?
A: Its IC50 is 25 nM.

Q: For KMSEYKGPV, which Kd [17] is on record?
A: The Kd was 2090 nM.

Q: What about the Kd ([11]; source organism: SARS-CoV1) of the same sequence?
A: Its Kd is 1520 nM.

Q: And the Kd [18]?
A: Its Kd is 10600 nM.

Q: And the Kd ([1]; source organism: SARS-CoV1)?
A: The Kd was 6670 nM.

Q: Which Kd [14, 32] does the source give for KNRNSKRSV here?
A: The Kd was 32.7 nM.

Q: For KTKRYLPAI, which Kd [14, 22] is on record?
A: Its Kd is 100 nM.

Q: Which Kd [19] does the source give for KVIQPRVEK here?
A: Its Kd is 890 nM.

Q: And the Kd [20]?
A: The Kd was 7340 nM.

Q: And the Kd [17]?
A: The Kd was 427 nM.

Q: How did the Kd [14, 32] turn out when KVRKIISKI was run?
A: Its Kd is 27.2 nM.

Q: For KVVRLTPQV, which Kd [14, 32] is on record?
A: Its Kd is 178 nM.

Q: With KYKQSNTNK as the sequence, how does the Kd [14, 32] read?
A: Its Kd is 103 nM.

Q: LDPIPYDPKF was tested. Which Kd [9, 22] did it give?
A: The Kd was 2420 nM.

Q: For LILAKPKET, which IC50 [12, 33] is on record?
A: Its IC50 is 10800 nM.

Q: Which results are given for LLPGVAHSI?
A: Kd ([10]; source organism: Amur virus): ≥ 20000 nM; Kd ([11]; source organism: Amur virus): 4.2 nM

Q: For LLWAFAHRQ, which Kd [10, 26] is on record?
A: Its Kd is ≥ 20000 nM.

Q: What about the Kd [11, 26] of the same sequence?
A: Its Kd is 551 nM.
